According to patent US5760185:
Where two headings read alike, the source gives them in different places.

Experiments:
[1] = molecular target: feline herpes virus-1 (FHV-1) viral particle, K1 strain
[2] = molecular target: feline herpes virus-1 (FHV-1) viral particle, K1 strain; remark: listed apart in the source

Binder | Minimum Effective Concentration for Neutralization [1] | Minimum Effective Concentration for Neutralization [2]
anti-FHV-1 chimeric antibody FH2 (antibody, V domains shown) VH: QVTLKESGPGILQPSQTLSLTCSFSGFSLSTSGMGAGWIRQPSGKGLEWLAHIWWDDVKRYNPALKSRLTISKDTSSSQVFLKIASVDTADTATYFCVRSQIYFDYDGAWFPFWGQGTLVTVSA VL: DIVLTQSPATLSVTPGDSVSLSCRASQSISNNLHWYQQKSHESPRLLIKYASQSISGIPSRFSGSGSGTDFTLSINSVETEDFGMYFCQQSNSWPHTFGAGTKLELKS | 1.95 µg/mL | 
mouse monoclonal antibody JH2 (antibody, V domains shown) VH: QVTLKESGPGILQPSQTLSLTCSFSGFSLSTSGMGAGWIRQPSGKGLEWLAHIWWDDVKRYNPALKSRLTISKDTSSSQVFLKIASVDTADTATYFCVRSQIYFDYDGAWFPFWGQGTLVTVSA VL: DIVLTQSPATLSVTPGDSVSLSCRASQSISNNLHWYQQKSHESPRLLIKYASQSISGIPSRFSGSGSGTDFTLSINSVETEDFGMYFCQQSNSWPHTFGAGTKLELK | 1.25 µg/mL | 0.39 µg/mL
